T1: WT G-CSF, purified from insect cells, tag cleaved (human, UniProt P09919 31-206)
T1 construct: protein of the SPR; also called G-CSFWT; wild type G-CSF
T1 sequence: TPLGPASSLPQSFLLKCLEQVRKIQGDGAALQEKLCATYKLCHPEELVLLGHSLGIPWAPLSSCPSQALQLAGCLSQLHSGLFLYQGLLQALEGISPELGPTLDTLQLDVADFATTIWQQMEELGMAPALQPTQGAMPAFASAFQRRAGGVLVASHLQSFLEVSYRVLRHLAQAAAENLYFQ

T2: WT G-CSFR(Ig-CRH), purified, tag cleaved (human, UniProt Q99062 26-331)
T2 construct: also called G-CSFRWT; wild type G-CSFR(Ig-CRH)
T2 chain: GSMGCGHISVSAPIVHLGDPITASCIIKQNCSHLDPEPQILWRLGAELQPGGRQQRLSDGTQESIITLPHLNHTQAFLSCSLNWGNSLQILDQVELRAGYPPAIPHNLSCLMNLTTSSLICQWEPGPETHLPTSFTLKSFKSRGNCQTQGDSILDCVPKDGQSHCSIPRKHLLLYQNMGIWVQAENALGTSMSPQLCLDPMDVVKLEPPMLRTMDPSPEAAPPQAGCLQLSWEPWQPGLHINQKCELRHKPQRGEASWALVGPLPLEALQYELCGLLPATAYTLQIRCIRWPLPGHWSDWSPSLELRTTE

B1: design 134 G-CSFR(Ig-CRH)E, tag cleaved (receptor)
chain: SMGCGHISVSAPIVHLGDPITASCIIKQNCSHLDPEPQILWELGAELQPGGRQQRLSDGTQESIITLPHLNHTQAFLSCSLNWGNSLQILDQVELRAGYPPAIPHNLSCLMNLTTSSLICQWEPGPETHLPTSFTLKSFKSEGNCQTQGDSILDCVPKDGQSHCSIPDKHLLLYQNMGIWVQAENALGTSMSPQLCLDPMDVVKLEPPMLRTMDPSPEAAPPQAGCLQLSWEPWQPGLHINQKCELRHKPQRGEASWALVGPLPLEALQYELCGLLPATAYTLQIRCIRWPLPGHWSDWSPSLELRTTE
notes: also called design 137 G-CSFR(Ig-CRH)E

target: T1, WT G-CSF, purified from insect cells, …; experiment: SPR, single-cycle kinetics

Binder | binding result
design 130 G-CSFR(Ig-CRH)E, tag cleaved (receptor, also called 130 ECD (Ig-CRH)) SMGCGHISVSAPIVHLGDPITASCIIKQNCSHLDPEPQILWELGAELQPGGRQQRLSDGTQESIITLPHLNHTQAFLSCSLNWGNSLQILDQVELRAGYPPAIPHNLSCLMNLTTSSLICQWEPGPETHLPTSFTLKSFKSRGNCQTQGDSILDCVPKDGQSHCSIPDKHLLLYQNMGIWVQAENALGTSMSPQLCLDPMDVVKLEPPMLRTMDPSPEAAPPQAGCLQLSWEPWQPGLHINQKCELRHKPQRGEASWALVGPLPLEALQYELCGLLPATAYTLQIRCIRWPLPGHWSDWSPSLELRTTE | no binding
design 401 G-CSFR(Ig-CRH)E, tag cleaved (receptor) SMGCGHISVSAPIVHLGDPITASCIIKQNCSHLDPEPQILWELGAELQPGGRQQRLSDGTQESIITLPHLNHTQAFLSCSLNWGNSLQILDQVELRAGYPPAIPHNLSCLMNLTTSSLICQWEPGPETHLPTSFTLKSFKSRGNCQTQGDSILDCVPKDGQSHCSIPDKHLLLYQNMGIWVQAENALGTSMSPQLCLDPMDVVKLEPPMLRTMDPSPEAAPPQAGCLQLSWEPWQPGLHINQKCELRHKPQRGEASWALVGPLPLEALQYELCGLLPATAYTLQIRCIDWPLPGHWSDWSPSLELRTTE | no binding
design 402 G-CSFR(Ig-CRH)E, tag cleaved (receptor) SMGCGHISVSAPIVHLGDPITASCIIKQNCSHLDPEPQILWELGAELQPGGRQQRLSDGTQESIITLPHLNHTQAFLSCSLNWGNSLQILDQVELRAGYPPAIPHNLSCLMNLTTSSLICQWEPGPETHLPTSFTLKSFKSRGNCQTQGDSILDCVPKDGQSHCSIPEKHLLLYENMGIWVQAENALGTSMSPQLCLDPMDVVKLEPPMLRTMDPSPEAAPPQAGCLQLSWEPWQPGLHINQKCELRHKPQRGEASWALVGPLPLEALQYELCGLLPATAYTLQIRCIEWPLPGHWSDWSPSLELRTTE | no binding

target: T1, WT G-CSF, purified from insect cells, …; experiment: SPR (Biacore T200), single-cycle kinetics

Binder | binding result
B1 | no binding
design 303 G-CSFR(Ig-CRH)E, tag cleaved (receptor) SMGCGHISVSAPIVHLGDPITASCIIKQNCSHLDPEPQILWRLGAELQPGGRQQRLSDGTQESIITLPHLNHTQAFLSCSLNWGNSLQILDQVKLRAGYPPAIPHNLSCLMNLTTSSLICQWEPGPETHLPTSFTLKSFKSRGNCQTQGDSILDCVPKDGQSHCSIPDKHLLLYQNMGIWVQAENALGTSMSPQLCLDPMDVVKLEPPMLRTMDPSPEAAPPQAGCLQLSWEPWQPGLHINQKCELRHKPQRGEASWALVGPLPLEALQYELCGLLPATAYTLQIRCIRWPLPGHWSDWSPSLELRTTE | no binding
design 300 G-CSFR(Ig-CRH)E, tag cleaved (receptor) SMGCGHISVSAPIVHLGDPITASCIIKQNCSHLDPEPQILWRLGAELQPGGRQQRLSDGTQESIITLPHLNHTQAKLSCSLNWGNSLQILDKVELRAGYPPAIPHNLSCLMNLTTSSLICQWEPGPETHLPTSFTLKSFKSRGNCQTQGDSILDCVPKDGQSHCSIPDKHLLLYQNMGIWVQAENALGTSMSPQLCLDPMDVVKLEPPMLRTMDPSPEAAPPQAGCLQLSWEPWQPGLHINQKCELRHKPQRGEASWALVGPLPLEALQYELCGLLPATAYTLQIRCIRWPLPGHWSDWSPSLELRTTE | no binding
design 307 G-CSFR(Ig-CRH)E, tag cleaved (receptor) SMGCGHISVSAPIVHLGDPITASCIIKQNCSHLDPEPQILWELGAELQPGGRQQRLSDGTQESIITLPHLNHTQAFLSCSLNWGNSLQILDQVELRAGYPPAIPHNLSCLMNLTTSSLICQWEPGPETHLPTSFTLKSFKSRGNCQTQGDSILDCVPKDGQSHCSIPRKHLLLYQNMGIWVQAENALGTSMSPQLCLKPMKVVKLEPPMLRTMDPSPEAAPPQAGCLQLSWEPWQPGLHINQKCELRHKPQRGEASWALVGPLPLEALQYELCGLLPATAYTLQIRCIEWPLPGHWSDWSPSLELRTTE | no binding
design 304 G-CSFR(Ig-CRH)E, tag cleaved (receptor) SMGCGHISVSAPIVHLGDPITASCIIKQNCSHLDPEPQILWELGAELQPGGRQQRLSDGTQESIITLPHLNHTQAFLSCSLNWGNSLQILDQVKLRAGYPPAIPHNLSCLMNLTTSSLICQWEPGPETHLPTSFTLKSFKSRGNCQTQGDSILDCVPKDGQSHCSIPDKHLLLYQNMGIWVQAENALGTSMSPQLCLDPMDVVKLEPPMLRTMDPSPEAAPPQAGCLQLSWEPWQPGLHINQKCELRHKPQRGEASWALVGPLPLEALQYELCGLLPATAYTLQIRCIRWPLPGHWSDWSPSLELRTTE | no binding

Target: B1
Experiment: SPR, G-CSFRE amine-coupled, G-CSFE injected, single-cycle kinetics
Method: (§1) The SPR binding assays were carried out on a Biacore T200 instrument (GE Healthcare, Mississauga, ON, Canada) with PBS-T (PBS+0.05% (v/v) Tween 20) running buffer at a temperature of 25° C. CM5 Series S sensor chip, Biacore amine coupling kit (NHS, EDC and 1 M ethanolamine), and 10 mM sodium acetate buffers were all purchased from GE Healthcare. PBS running buffer with 0.05% Tween20 (PBS-T) was purchased from Teknova Inc. (Hollister, CA). Designs were assessed in three different immobilization orientations.
To determine binding affinity of G-CSFE to G-CSFRE the G-CSFRE mutant was captured by standard amine coupling as described by the manufacturer (GE LifeSciences). Briefly, immediately after EDC/NHS activation, a 5 μg/mL solution of G-CSFRE in 10 mM NaOAc, pH 5.0, was injected at a flow rate of 5 μL/min until a receptor density of ˜700-900 RU was reached. The remaining active groups were quenched by a 420 s injection of 1 M ethanolamine hydrochloride-NaOH pH 8.5 at 10 μL/min. Using single-cycle kinetics, six concentrations of a two-fold dilution series of the corresponding G-CSFE mutant starting at 200 nM with a blank buffer control were sequentially injected at 25 μL/min for 300 s with a 1800 s dissociation phase, resulting in a set of sensorgrams with a buffer blank reference. The same sample titration was also performed on a reference cell with no variants captured. The chip was regenerated to prepare for the next injection cycle by one pulse of 10 mM glycine/HCl, pH 2.0, for 30 s at 30 μL/min.
Double-referenced sensorgrams from duplicate or triplicate repeat injections were analyzed using Biacore™ T200 Evaluation Software v3.0 and fit to the 1:1 Langmuir binding model.

Binder | KD fold change (against WT:WT) [fold]
design 134 G-CSFE, tag cleaved (ligand) TPLGPASSLPQSFLLKCLEQVRKIQGDGAALQEKLCATYKLCHPERLVLLGHSLGIPWAPLSSCPSQALQLAGCLSQLHSGLFLYQGLLQALEGISPELGPTLDTLQKDVARFATTIWQQMRRLGMAPALQPTQGAMPAFASAFQRRAGGVLVASHLQSFLEVSYRVLRHLAQAAAENLYFQ | 1

Target: T2, WT G-CSFR(Ig-CRH), purified, tag cleaved
Experiment: SPR, WT G-CSFR(Ig-CRH) amine-coupled, G-CSFE injected, single-cycle kinetics
Method: as §1
To assess binding affinity of G-CSFE to G-CSFRWT, recombinant G-CSFRWT purified as described in Example 5 was captured as described above in this Example. Using single-cycle kinetics, six concentrations of a two-fold dilution series of each G-CSFE mutant starting at […] with a blank buffer control were sequentially injected as described above. The same sample titration was also performed on a reference cell with no variants captured. The G-CSFRWT surface was regenerated as described above.

Binder | KD fold change (against WT:WT) [fold]
design 9 G-CSFE, tag cleaved (ligand, also called design 9 G-CSFE mutant) TPLGPASSLPQSFLLKCLEQVRKIQGDGAALQEKLCATYKLCHPEELVLLGHSLGIPWAPLSSCPSQALQLAGCLSQLHSGLFLYQGLLQALEGISPELGPTLRTLQKDVARFATTIWRQMKELGMAPALQPTQGAMPAFASAFQRRAGGVLVASHLQSFLEVSYRVLRHLAQAAAENLYFQ | 79
design 134 G-CSFE, tag cleaved (ligand) TPLGPASSLPQSFLLKCLEQVRKIQGDGAALQEKLCATYKLCHPERLVLLGHSLGIPWAPLSSCPSQALQLAGCLSQLHSGLFLYQGLLQALEGISPELGPTLDTLQKDVARFATTIWQQMRRLGMAPALQPTQGAMPAFASAFQRRAGGVLVASHLQSFLEVSYRVLRHLAQAAAENLYFQ | 465
design 117 G-CSFE, tag cleaved (ligand, also called design 117 G-CSFE mutant) TPLGPASSLPQSFLLKCLEQVRKIQGDGAALQEKLCATYKLCHPERLVLLGHSLGIPWAPLSSCPSQALQLAGCLSQLHSGLFLYQGLLQALEGISPELGPTLDTLQLDVADFATTIWQQMRRLGMAPALQPTQGAMPAFASAFQRRAGGVLVASHLQSFLEVSYRVLRHLAQAAAENLYFQ | 3.4

From US20240254182A1 (PROVINCIAL HEALTH SERVICES AUTHORITY, published 2024)
